# Values joined by “and” are separate entries in the source; they are usually repeats but may differ in a detail not shown here. Equal entries are not always repeated.
# Legend:
# [1] = molecular target: {Gla swap FIX/M19K/E40L/K43I/Q44S}/Q286R/M298Q-FVIIa (human)
# [2] = molecular target: T128N/P129A/A175S/Q286R-FVIIa (human)
# [3] = molecular target: T128N/P129A/M298Q-FVIIa (human)
# [4] = molecular target: V158D/Q286R/E296V/M298Q-FVIIa (human)
# [5] = molecular target: T239V/Q286R/M298Q-FVIIa (human)
# [6] = molecular target: T128N/P129A/A175S-FVIIa (human)
# [7] = molecular target: T128N/P129A/A175S/S222A-FVIIa (human)
# [8] = molecular target: S52A/S60A/S222A/H257A/Q286R/M298Q-FVIIa (human)
# [9] = molecular target: T239I/Q286R/M298Q-FVIIa (human)
# [10] = molecular target: T239V/Q286R-FVIIa (human)
# [11] = molecular target: A122N/G124S-FVIIa (human)
# [12] = molecular target: H257A/Q286R/M298Q-FVIIa (human)
# [13] = molecular target: S222A/T239V-FVIIa (human)
# [14] = molecular target: T128N/P129A/A175S/Q286R/M298Q-FVIIa (human)
# [15] = molecular target: H257A/Q286R-FVIIa (human)
# [16] = molecular target: T128N/P129A/Q286R/M298Q/H373F-FVIIa (human)
# [17] = molecular target: T239V/Q286R/M298Q/Q366N-FVIIa (human)
# [18] = molecular target: V158D/Q286R/E296V/M298Q/H373F-FVIIa (human)
# [19] = molecular target: T239I/Q286R/M298Q/Q366N-FVIIa (human)
# [20] = molecular target: T128N/P129A-FVIIa (human)
# [21] = molecular target: {Gla swap FIX/Q44S}/Q286R/M298Q-FVIIa (human)
# [22] = molecular target: {Gla swap FIX/K43I}/Q286R/M298Q/Q366N-FVIIa (human)
# [23] = molecular target: S222A/Q286R/M298Q-FVIIa (human)
# [24] = molecular target: A122N/G124S/A175S-FVIIa (human)
# [25] = molecular target: Q286R/M298Q-FVIIa (human)
# [26] = molecular target: T239V/M298Q/H373F-FVIIa (human)
# [27] = molecular target: T128N/P129A/T239I/Q286R/M298Q-FVIIa (human)
# [28] = molecular target: S222A/H257A/Q286R-FVIIa (human)
# [29] = molecular target: T128N/P129A/Q286R/M298Q/Q366N/H373F-FVIIa (human)
# [30] = molecular target: Gla swap FIX/S222A/Q286R/H373F-FVIIa (human)
# [31] = molecular target: S52A/S60A/Q286R-FVIIa (human)
# [32] = molecular target: A122N/G124S/A175S/S222A-FVIIa (human)
# [33] = molecular target: T128N/P129A/Q286R-FVIIa (human)
# [34] = molecular target: T128N/P129A/Q286R/M298Q-FVIIa (human)
# [35] = molecular target: {Gla swap FIX/K43I}/Q286R/M298Q-FVIIa (human)
# [36] = molecular target: T128N/P129A/Q286R/M298Q/Q366N-FVIIa (human)
# [37] = molecular target: T128N/P129A/A175S/Q286R/M298Q/H373F-FVIIa (human)
# [38] = molecular target: K109N/A175S-FVIIa (human)
# [39] = molecular target: T128N/P129A/V158D/E296V/M298Q-FVIIa (human)
# [40] = molecular target: Gla swap FIX/T128N/P129A/Q286R/M298Q-FVIIa (human)
# [41] = molecular target: T128N/P129A/T239I/Q286R/M298Q/H373F-FVIIa (human)
# [42] = molecular target: Q286R/M298Q/Q366N-FVIIa (human)
# [43] = molecular target: A122N/G124S/A175S/S222A/H257A/Q286R/M298Q-FVIIa (human)
# [44] = molecular target: Gla swapFIX/Q366V-FVIIa (human)
# [45] = molecular target: Gla swap FIX/A122N/G124S/A175S/S222A/Q286R-FVIIa (human)
# [46] = molecular target: S222A/T239V/H257A/Q286R/M298Q-FVIIa (human)
# [47] = molecular target: Gla swap FIX/Q286R/M298Q-FVIIa (human)
# [48] = molecular target: {Gla swap FIX/E40L}/Q286R/M298Q-FVIIa (human)
# [49] = molecular target: Gla swap FIX/S222A/Q286R/M298Q/H373F-FVIIa (human)
# [50] = molecular target: A122N/G124S/A175S/Q366V-FVIIa (human)
# [51] = molecular target: T239I/Q286R-FVIIa (human)
# Sequence of antithrombin III (P01008 33-464): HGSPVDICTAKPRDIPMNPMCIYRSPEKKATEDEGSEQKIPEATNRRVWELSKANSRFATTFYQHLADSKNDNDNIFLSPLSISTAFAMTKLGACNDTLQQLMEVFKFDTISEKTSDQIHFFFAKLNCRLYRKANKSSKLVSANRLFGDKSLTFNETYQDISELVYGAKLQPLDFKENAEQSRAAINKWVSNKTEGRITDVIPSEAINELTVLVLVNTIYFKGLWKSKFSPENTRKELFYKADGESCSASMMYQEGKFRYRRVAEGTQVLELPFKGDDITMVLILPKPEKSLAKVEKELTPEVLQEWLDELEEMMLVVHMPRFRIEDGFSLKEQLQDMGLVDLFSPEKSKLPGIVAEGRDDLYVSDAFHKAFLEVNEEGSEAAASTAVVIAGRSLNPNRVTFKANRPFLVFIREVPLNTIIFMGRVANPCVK
substance,measurement,setting,value
antithrombin III,K0.5,[1],339 nM
same,K0.5,[2],9.55 µM
same,K0.5,[3],144 nM
same,K0.5,[4],85 nM
same,K0.5,[5],3.63 µM
same,K0.5,[6],1390 nM
same,K0.5,[7],1910 nM
same,K0.5,[8],448 nM
same,K0.5,[9],1610 nM
same,K0.5,[10],1790 nM
same,K0.5,[11],372 nM
same,K0.5,[12],391 nM
same,K0.5,[13],967 nM
same,K0.5,[14],2310 nM
same,K0.5,[15],2800 nM
same,K0.5,S222A-FVIIa (human),384 nM
same,K0.5,[16],183 nM
same,K0.5,[17],252 nM
same,K0.5,K109N-FVIIa (human),330 nM
same,K0.5,[18],62.1 nM
same,K0.5,[19],813 nM
same,K0.5,[20],465 nM
same,K0.5,[21],271 nM
same,K0.5,[22],404 nM
same,K0.5,[23],308 nM
same,K0.5,[24],1350 nM
same,K0.5,[25],299 nM and 287 nM and 395 nM
same,K0.5,[26],46.6 nM
same,K0.5,[27],917 nM
same,K0.5,[28],2590 nM
same,K0.5,A175S-FVIIa (human),1330 nM
same,K0.5,[29],148 nM
same,K0.5,[30],587 nM
same,K0.5,[31],1320 nM
same,K0.5,[32],1550 nM
same,K0.5,[33],1650 nM and 1740 nM
same,K0.5,[34],284 nM
same,K0.5,[35],244 nM and 219 nM
same,K0.5,[36],346 nM
same,K0.5,[37],1130 nM
same,K0.5,[38],2030 nM
same,K0.5,[39],81.6 nM
same,K0.5,[40],508 nM and 325 nM
same,K0.5,[41],317 nM
same,K0.5,[42],324 nM
same,K0.5,[43],2970 nM
same,K0.5,S52A/S60A-FVIIa (human),361 nM
same,K0.5,[44],108 nM
same,K0.5,[45],5.52 µM
same,K0.5,[46],469 nM
same,K0.5,[47],282 nM and 238 nM
same,K0.5,[48],287 nM
same,K0.5,[49],164 nM
same,K0.5,[50],336 nM
same,K0.5,H257S-FVIIa (human),723 nM
same,K0.5,[51],5.82 µM
same,K0.5,Q286R-FVIIa (human),1090 nM
same,"K0.5, TF-independent, FVIIa from 293-F cells",wild-type FVIIa (human),2260 nM
same,"K0.5 mut/K0.5 wt, TF-independent, 293-F cells",wild-type FVIIa (human),1
same,"K0.5 mut/K0.5 wt, TF-independent, BHK-21 cells",wild-type FVIIa (human),1

# Reference: patent US20090291890A1 (published 2009)
